According to PMC9129000, “RADA-dependent branch migration has a predominant role in plant mitochondria and its defect leads to mtDNA instability and cell cycle arrest”:
Blank lines part the entries; values can stand above or below the molecule they belong to.

Key:
[1] = target: Arabidopsis RADA recombinant protein (His-tagged, WT) (Arabidopsis thaliana); assay: dynamic light scattering; protein fraction of gel filtration peak 2 (the smaller oligomer)
RADA [2] = target: T1, RADA (Arabidopsis thaliana, UniProt F4K8X8 49-627); assay: EMSA; probe and homologous competitor; 20 mM Tris-HCl pH 7.5, 50 mM KCl, 5 mM MgCl2, 0.5 mM EDTA, 10% glycerol, 1 mM DTT, protease inhibitors; 20 C, 20 min; 8 or 4.5% PAGE in TBE at 4 C; details: protein: recombinant; tags: N-terminal His (pET28a); chain copies: 6; label: 5'-32P as probe; single strand
T1 sequence: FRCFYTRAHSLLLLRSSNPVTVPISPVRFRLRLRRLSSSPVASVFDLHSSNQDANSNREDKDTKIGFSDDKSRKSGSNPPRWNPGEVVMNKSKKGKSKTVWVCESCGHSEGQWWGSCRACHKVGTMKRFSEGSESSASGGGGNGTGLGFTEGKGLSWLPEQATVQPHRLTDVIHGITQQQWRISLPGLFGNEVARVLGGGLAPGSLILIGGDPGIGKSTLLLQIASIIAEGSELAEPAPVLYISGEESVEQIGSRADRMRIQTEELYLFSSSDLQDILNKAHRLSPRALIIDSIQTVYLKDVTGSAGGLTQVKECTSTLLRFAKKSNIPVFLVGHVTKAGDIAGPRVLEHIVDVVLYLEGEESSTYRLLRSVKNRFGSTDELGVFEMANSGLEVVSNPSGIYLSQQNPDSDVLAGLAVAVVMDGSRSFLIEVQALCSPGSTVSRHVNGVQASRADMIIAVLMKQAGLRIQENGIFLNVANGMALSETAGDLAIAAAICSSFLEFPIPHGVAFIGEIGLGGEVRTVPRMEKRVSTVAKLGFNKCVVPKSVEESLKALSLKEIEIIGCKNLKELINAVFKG

RADA [3] = target: T1, RADA; assay: competition; competes as efficiently as homologous 30-mer; 20 mM Tris-HCl pH 7.5, 50 mM KCl, 5 mM MgCl2, 0.5 mM EDTA, 10% glycerol, 1 mM DTT, protease inhibitors; 20 C, 20 min; 8 or 4.5% PAGE in TBE at 4 C; details: protein: recombinant; tags: N-terminal His (pET28a); chain copies: 6; single strand
RADA [4] = target: T1, RADA; assay: EMSA; 20 mM Tris-HCl pH 7.5, 50 mM KCl, 5 mM MgCl2, 0.5 mM EDTA, 10% glycerol, 1 mM DTT, protease inhibitors; 20 C, 20 min; 8 or 4.5% PAGE in TBE at 4 C; details: protein: recombinant; tags: N-terminal His (pET28a); chain copies: 6; label: 5'-32P; single strand

stoichiometry N [1]: 6
Molecule: Arabidopsis RADA recombinant protein (His-tagged, WT) (enzyme)

Molecule: AGTCAGTCAGTCAGTCAGTCAGTCAGTCAG (ssDNA) [EMSA 30-mer 7x[AGTC]AG]
binding result (RADA [2]): binds

Molecule: TTTTTTTTTTTTTTTTTTTTTTTTTTTTTT (ssDNA) [poly-dT 30-mer]
binding result (RADA [3]): binds

B1: EMSA ssDNA (ssDNA)
DNA: GACGCTGCCGAATTCTACCAGTGCCTTGCTAGGACATCTTTGCCCACCTGCAGGTTCACCC
binding result (RADA [4]): binds
